In assay [1] the target is CD123 antigen on AML cells (THP-1 cell line, primary AML blasts) (human) (UniProt P26951). Nature of the assay: cell-based or functional assay.
For assay [2], the target named is CD19 antigen on ALL cells (REH cell line, primary ALL blasts) (human) (UniProt P15391). Briefly: cell-based or functional assay.
UniProt P15391, sequence (P15391 20-556): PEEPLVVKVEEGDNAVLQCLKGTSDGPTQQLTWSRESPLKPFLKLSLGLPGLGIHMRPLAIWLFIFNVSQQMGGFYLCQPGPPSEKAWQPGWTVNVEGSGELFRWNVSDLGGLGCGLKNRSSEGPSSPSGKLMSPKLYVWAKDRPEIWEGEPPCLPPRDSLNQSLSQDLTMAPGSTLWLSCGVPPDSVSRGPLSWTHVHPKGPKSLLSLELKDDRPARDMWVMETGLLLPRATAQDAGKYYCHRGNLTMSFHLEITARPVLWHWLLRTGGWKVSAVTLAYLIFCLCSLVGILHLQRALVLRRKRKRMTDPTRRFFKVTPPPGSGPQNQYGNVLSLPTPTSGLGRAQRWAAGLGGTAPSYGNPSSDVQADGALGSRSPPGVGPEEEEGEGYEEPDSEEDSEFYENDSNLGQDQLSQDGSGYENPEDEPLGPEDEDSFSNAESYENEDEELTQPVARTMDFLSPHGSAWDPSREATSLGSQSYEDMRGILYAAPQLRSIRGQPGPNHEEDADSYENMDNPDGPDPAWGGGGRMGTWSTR

UniProt P26951, sequence (P26951 19-378): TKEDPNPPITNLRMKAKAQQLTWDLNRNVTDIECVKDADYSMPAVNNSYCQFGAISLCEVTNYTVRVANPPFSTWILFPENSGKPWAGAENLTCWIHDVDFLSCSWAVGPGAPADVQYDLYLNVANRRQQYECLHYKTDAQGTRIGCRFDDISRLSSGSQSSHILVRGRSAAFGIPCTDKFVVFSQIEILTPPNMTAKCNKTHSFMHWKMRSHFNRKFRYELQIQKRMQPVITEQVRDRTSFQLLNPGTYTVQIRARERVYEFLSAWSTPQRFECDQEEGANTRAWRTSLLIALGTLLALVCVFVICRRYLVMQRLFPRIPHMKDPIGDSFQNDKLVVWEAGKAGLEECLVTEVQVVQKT

In the case of “CD123·CAR (anti-CD123 chimeric antigen receptor: scFv from mAb 7G3 in frame with CH2CH3-CD28-OX40-ζ), expressed on CIK cells (from UniProt P10747 153-220; P43489 242-277; P20963 52-163)”, in assay [1], the lysis of AML primary blasts by CD123·CAR+ CIK cell populations (cytotoxic assay) was 60% and the lysis of THP-1 AML cell line by CD123·CAR+ CIK cell populations (cytotoxic assay) came to 85%.

In the case of “CD19·CAR (anti-CD19 chimeric antigen receptor: VL and VH of clone FMC63 in frame with CH2CH3-CD28-OX40-ζ), expressed on CIK cells (from UniProt P10747 153-220; P43489 242-277; P20963 52-163)”, in assay [2], the lysis of ALL primary blasts by CD19·CAR+ CIK cell populations (cytotoxic assay) came out at 56.8% and the lysis of REH ALL cell line by CD19·CAR+ CIK cell populations (cytotoxic assay) turned out to be 80%.

The values above are taken from patent publication US20230287348A1.
